From publication PMC10159003
“And” between values parts separate entries of the source, which are not always exact repeats. Equal values may be shown once. Read-outs that look alike come from different tables or passages of the source.

How the values were obtained:
[1] = target: full-length RtcR (S. Typhimurium); assay: SEC
[2] = target: full-length RtcR (S. Typhimurium); assay: SEC; remark: listed apart in the source

Q: full-length RtcR (natural protein) was tested. Which stoichiometry N [1] did it give?
A: Its stoichiometry N is 2 and 6.

Q: What about the stoichiometry N [2] of the same substance?
A: The stoichiometry N was 2 and 6.
